# Numbering of substitutions follows the chain as printed. Numbers in names are those of the source.
# T1: FcγRIIb (human, UniProt P31994 43-217)
# T1 construct: extracellular domain; for crystallography expressed with Kifunesine and trimmed with Endo F1; also called FcgRIIb; FcgR2b; not shown: His tag attached to the C terminus
# T1 sequence (looked up): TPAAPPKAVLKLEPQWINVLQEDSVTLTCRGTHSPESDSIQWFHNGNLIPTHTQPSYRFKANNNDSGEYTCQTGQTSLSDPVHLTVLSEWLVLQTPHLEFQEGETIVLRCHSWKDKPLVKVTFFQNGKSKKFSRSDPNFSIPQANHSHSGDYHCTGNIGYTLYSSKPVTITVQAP
# B1: GpH7-A5/GpH7-B3/GpL16-k0 (antibody, human IgG1, kappa)
# heavy 1: not shown
# heavy 2: not shown
# light: DIVMTQSPLSLPVTPGEPASISCQASESLVHSNRNTYLHWYLQKPGQSPQLLIYKVSNRFSGVPDRFSGSGSGTDFTLKISRVEAEDVGVYYCSQNTHVPPTFGQGTKVEIERTVAAPSVFIFPPSDEQLKSGTASVVCLLNNFYPREAKVQWKVDNALQSGNSQESVTEQDSKDSTYSLSSTLTLSKADYEKHKVYACEVTHQGLSSPVTKSFNRGEC
# notes: also called HeCon Ab; control heterodimerized antibody
# B2: GpH7-A44/GpH7-B3/GpL16-k0 (antibody, human IgG1, kappa)
# heavy 1: QVQLVQSGAEVKKPGASVTVSCKASGYTFTDYEMHWIRQPPGEGLEWIGAIDPKTGDTAYSESFQDRVTLTADKSTSTAYMELSSLTSEDTAVYYCTRFYSYTYWGQGTLVTVSSASTKGPSVFPLAPSSKSTSGGTAALGCLVKDYFPEPVTVSWNSGALTSGVHTFPAVLQSSGLYSLSSVVTVPSSSLGTQTYICNVNHKPSNTKVDKKVEPKSCDKTHTCPPCPAPELLGGPSVFLFPPKPKDTLMISRTPEVTCVVVDVSHEDPEVKFNWYVDGVEVHNAKTKPREEQYNSTYRVVSVLTVLHQDWLNGKEYKCKVSNKALPAPEEKTISKAKGQPREPQVYTLPPSRKELTKNQVSLTCLVKGFYPSDIAVEWESNGQPENNYKTTPPVLDSDGSFFLYSKLTVDKSRWQQGNVFSCSVMHEALHNRYTQKSLSLSP
# heavy 2: not shown
# light: B1 light
# notes: Heterodimerized anti-glypican-3 IgG1; I332E only in the GpH7-A5-derived chain (A44)
# B3: GpH7-A5/GpH7-B80/GpL16-k0 (antibody, human IgG1, kappa)
# heavy 1: not shown
# heavy 2: not shown
# light: B1 light
# notes: Heterodimerized anti-glypican-3 IgG1
# B4: GpH7-A44/GpH7-B80/GpL16-k0 (antibody, human IgG1, kappa)
# heavy 1: B2 heavy 1
# heavy 2: not shown
# light: B1 light
# notes: Anti-glypican-3 IgG1 with I332E in both H chains
# B5: GpH7-A26/GpH7-B3/GpL16-k0 (antibody, human IgG1, kappa)
# heavy 1: B2 heavy 1 with G235A, E330I
# heavy 2: not shown
# light: B1 light
# notes: G237A in one H chain
# B6: GpH7-A26/GpL16-k0 (antibody, human IgG1, kappa)
# heavy: B2 heavy 1 with G235A, E330I
# light: B1 light
# notes: G237A in both H chains
# B7: GpH7-A43/GpH7-B3/GpL16-k0 (antibody, human IgG1, kappa)
# heavy 1: B2 heavy 1 with L326D, E330I
# heavy 2: not shown
# light: B1 light
# notes: L328D in one H chain
# B8: GpH7-A43/GpL16-k0 (antibody, human IgG1, kappa)
# heavy: B2 heavy 1 with L326D, E330I
# light: B1 light
# notes: L328D in both H chains
# B9: GpH7-A29/GpH7-B3/GpL16-k0 (antibody, human IgG1, kappa)
# heavy 1: B2 heavy 1 with G235L, E330I
# heavy 2: not shown
# light: B1 light
# notes: G237L in one H chain
# B10: GpH7-A29/GpL16-k0 (antibody, human IgG1, kappa)
# heavy: B2 heavy 1 with G235L, E330I
# light: B1 light
# notes: G237L in both H chains
# B11: GpH7-A42/GpL16-k0 (antibody, human IgG1, kappa)
# heavy: B2 heavy 1 with L326E, E330I
# light: B1 light
# notes: L328E in both H chains
# B12: GpH7-A42/GpH7-B3/GpL16-k0 (antibody, human IgG1, kappa)
# heavy 1: B2 heavy 1 with L326E, E330I
# heavy 2: not shown
# light: B1 light
# notes: L328E in one H chain
# Biological target: T2, FcγRIIIa extracellular domain with C-terminal His tag (human, UniProt P08637 17-208)
# T2 construct: extracellular domain; also called FcgRIIIa; 3a; not shown: His tag at the C terminus
# T2 sequence (P08637 17-208): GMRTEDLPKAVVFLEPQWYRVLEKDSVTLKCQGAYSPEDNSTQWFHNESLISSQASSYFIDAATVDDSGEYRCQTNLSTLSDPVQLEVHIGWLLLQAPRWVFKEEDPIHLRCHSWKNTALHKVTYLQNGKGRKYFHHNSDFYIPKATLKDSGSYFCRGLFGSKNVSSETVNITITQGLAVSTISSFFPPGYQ
# Assay: SPR (Biacore), kinetic analysis, antibody captured, FcγRIIIa as analyte
# From the text: Then, the present inventors introduced I332E into only one H chain, and assessed whether the Tm is elevated as compared to when I332E is introduced into both H chains. Expression vectors inserted with GpH7-A44 (SEQ ID NO: 49) and GpH7-B80 (SEQ ID NO: 50) resulting from the introduction of I332E into GpH7-A5 and GpH7-B3, respectively, were constructed. They were combined with GpH7-B3, GpH7-A5, and GpL16-k0 to express and prepare the following antibodies according to the method described in Reference Example 1: the heterodimerized antibodies GpH7-A5/GpH7-B80/GpL16-k0 and GpH7-A44/GpH7-B3/GpL16-k0 in which only one of the H chains was introduced with I332E, and the homodimerized antibody GpH7-A44/GpH7-B80/GpL16-k0 in which both of the H chains were introduced with I332E. GpH7-A5/GpH7-B3/GpL16-k0 was prepared as a control. Each antibody was assessed for the FcγRIIIa-binding activity according to the method described in Reference Example 2. In addition, the antibodies were compared for the Tm of CH2 domain by thermal shift assay according to the method described in Reference Example 5 (Tables 28 and 29).
# (§1) Analysis of interaction between objective antibody and the FcγR was carried out using Biacore T100 (GE Healthcare). HBS-EP+ (GE Healthcare) was used as the running buffer, and the measurement temperature was set to 25° C. Chips produced by immobilizing the antigen peptide by the amine coupling method to a Series S Sencor Chip CM5 (GE Healthcare), or alternatively, chips produced by allowing preliminarily biotinylated antigen peptides to interact with and immobilize onto a Series S Sensor Chip SA (certified) (GE Healthcare) were used. Antibodies of interest were captured onto an antigen peptide-immobilized chip, and allowed to interact to each FcγR diluted with running buffer. To regenerate and repeatedly use the chip, the antibodies captured on the chip were washed off by reacting 10 mM glycine-HCl, pH 1.5.
# The FcγR-binding activity of each antibody was assessed primarily using as an indicator the FcγR-binding activity and dissociation constant for FcγR.
KD ratio,Kd,Binder
1 fold (KD of GpH7-A5/GpH7-B3/GpL16-k0 divided by KD of the antibody),1600 nM,B1
4.4 fold (KD of GpH7-A5/GpH7-B3/GpL16-k0 divided by KD of the antibody),370 nM,B2
3.4 fold (KD of GpH7-A5/GpH7-B3/GpL16-k0 divided by KD of the antibody),470 nM,B3
7.1 fold (KD of GpH7-A5/GpH7-B3/GpL16-k0 divided by KD of the antibody),230 nM,B4

# Biological target: T1, FcγRIIb
# Assay: SPR (Biacore), relative binding
# From the text: The constructed expression vectors were each combined with GpH7-A5 and GpL16-k0 to express heterodimerized antibodies, or they were combined with GpL16-k0 alone but not with other H chains to express homodimerized antibodies. These antibodies were expressed and purified according to the method described in Reference Example 1. The resulting purified antibodies are the following: the heterodimerized antibodies GpH7-A5/GpH7-B12/GpL16-k0, GpH7-A5/GpH7-B13/GpL16-k0, GpH7-A5/GpH7-B14/GpL16-k0, and GpH7-A5/GpH7-B15/GpL16-k0; and homodimerized antibodies GpH7-B12/GpL16-k0, GpH7-B13/GpL16-k0, GpH7-B14/GpL16-k0, and GpH7-B15/GpL16-k0. The prepared antibodies were used to assess the binding activity to each FcγR by the method described in Reference Example 2.
# as §1
row,binding result,Binder
1,binds,B5
2,binds,B6
3,binds,B7
4,binds,B8
5,binds,B9
6,binds,B10
7,binds,B11
8,binds,B12

# — patent US20180155451A1 (published 2018)
